{
  "source": "patent US20210269549A1",
  "about": "“ANTI-SAS1B ANTIBODIES, ASSOCIATED METHODS OF USE, AND COMPOSITIONS AND METHODS FOR DETECTING AND TREATING CANCER” (UNIVERSITY OF VIRGINIA PATENT FOUNDATION, priority 2015, published 2021)",
  "key": {"[1]": {"molecular_target": "T1, SAS1B extracellular domain (aa 164-431) polypeptide (Homo sapiens, UniProt Q6HA08)", "T1 construct": "SAS1B extracellular domain (aa 164-431) polypeptide; made in house", "T1 sequence (Q6HA08 164-431)": "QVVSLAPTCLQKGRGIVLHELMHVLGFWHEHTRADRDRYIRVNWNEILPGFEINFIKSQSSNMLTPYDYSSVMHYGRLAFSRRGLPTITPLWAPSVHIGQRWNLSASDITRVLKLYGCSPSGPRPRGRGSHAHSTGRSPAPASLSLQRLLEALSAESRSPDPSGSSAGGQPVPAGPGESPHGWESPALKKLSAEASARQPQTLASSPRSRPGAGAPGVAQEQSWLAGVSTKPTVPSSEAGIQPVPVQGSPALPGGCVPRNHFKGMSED", "assay": "Western blot with mammalian cell-expressed recombinant SAS1B, extracellular domain", "type": "binding", "procedure": "SAS1B monoclonal antibodies were analyzed with mammalian cell-expressed recombinant SAS1B by western blotting."}, "[2]": {"test_system": "MMMT539 (uterine cancer cell line)", "assay": "Live cell surface indirect immunofluorescence, MMMT539", "type": "cell-based, human", "details": "live cells on ice", "procedure": "Anti-Human SAS1B mouse monoclonal antibodies reactive to SAS1B epitope on live cancer cell surfaces were identified by indirect immuno-fluorescence (IF) for the development of therapeutic antibodies. M1 (renal cancer cell line) and MMMT539 (uterine cancer cell line) cells were seeded at 20,000 cells in 1 ml per well on collagen coated coverslips in 24 well plates. The media was replaced 22 h post seeding. For antibody probing, cells were kept on ice for ˜8 to 18 min following 47 h post-seeding. The first antibody was added at 10 ug/ml, 20 ug/ml or 50 ug/ml in complete culture media with 15 mM NaN3 (pre-chilled), incubated on ice for 60 min, and the cells washed in complete culture media with 15 mM NaN3 in cold 1 ml, ×3. The second antibody, goat-antimouse-AF488 (pre-chilled), was added to the wells at 5 ug/ml in complete culture media with 15 mM NaN3 for 60 min on ice. The cells were washed in complete media with 15 mM NaN3, 1 ml, ×3 on ice. The cells were fixed in 4% PFA in PBS for 20 minutes on ice. The cells were washed in distilled water at RT, 1 ml, ×1 and mounted in 8 ul of SLOWFADE® Diamond Antifade Mountant with DAPI. An anti-EGFR monoclonal antibody was used as a positive control on live M1 cells. Epidermal growth factor receptor (EGFR) is a transmembrane glycoprotein and member of protein kinase superfamily. […] Most of the cells expressed the receptor and validated the live cell surface IF staining methodology for the screening of anti-human SAS1B mouse monoclonal antibodies. The receptor molecule was found on the cell surfaces. Anti-human CABYR monoclonal antibody 3A4 was used as a negative control on live MMMT539 cells. CABYR is a calcium binding cytoskeleton sperm protein with no transmembrane domain."}, "human SAS1B": {"molecular_target": "T2, human SAS1B (Homo sapiens, UniProt Q6HA08)", "T2 construct": "made in house; host or cells: E. coli", "T2 sequence (Q6HA08 24-431)": "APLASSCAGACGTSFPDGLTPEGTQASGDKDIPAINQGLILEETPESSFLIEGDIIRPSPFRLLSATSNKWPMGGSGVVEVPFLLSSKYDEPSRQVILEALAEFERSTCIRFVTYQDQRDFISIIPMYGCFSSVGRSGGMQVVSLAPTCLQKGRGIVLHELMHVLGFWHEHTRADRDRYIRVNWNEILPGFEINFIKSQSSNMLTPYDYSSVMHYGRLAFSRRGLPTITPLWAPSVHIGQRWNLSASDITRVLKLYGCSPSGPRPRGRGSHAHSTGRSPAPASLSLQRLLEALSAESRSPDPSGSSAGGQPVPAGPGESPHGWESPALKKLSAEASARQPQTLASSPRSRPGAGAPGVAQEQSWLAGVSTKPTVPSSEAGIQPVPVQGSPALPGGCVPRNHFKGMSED", "assay": "Immunoprecipitation of SAS1B from HEK293T cells transfected with SAS1B", "type": "binding", "details": "for Pull down (immunoprecipitation) of SAS1B: HEK293T extract, western blot detection with anti-His mAb", "procedure": "HEK293T cells were transfected with human SAS1B full length cDNA for 66 h. Immuno-precipitation of SAS1B was completed with SB1, SB2, SB4 and SB5 monoclonal antibodies. Following SAS1B immunoprecipitation, detection was completed with mouse anti-His tag mAb at C-terminus. Immunoprecipitated samples were analyzed by protein staining with Coomassie staining. Immunoprecipitated sample was also analyzed by MS/MS analysis. VH and VL chain CDR1-3 regions were sequenced for the confirmed anti-SAS1B mAbs. Immunoprecipitation was performed with N-terminal mAbs from transfected cells extracted with RIPA/protease inhibitor. Detection of the SAS1B immunoprecipitation product was completed with HRP peroxidase conjugated mouse anti-His mAb at 1:3000 or 1:5000 dilution. HEK293T cells were seeded at 250,000. The cells were transfected with […] of SAS1B-SVA plasmid into each of the two T-75 flasks (at ˜90% confluency) for ˜66 h at 37 C and 5% CO2. Following transfection, two saline washes were completed with 1×HBSS. Lysed cells were incubated with RIPA+protease inhibitor for one hour on ice with mixing to ensure homogenous lysate and supernatant used for IP (RIPA: 25 mM Tris-HCl (pH 7.6), 150 mM NaCl, 1% NP-40, 1% sodium deoxycholate, 0.1% SDS). For the immunoprecipitation, 3 mg magnetic bead coupled protein G were suspended and incubated with […] of each SAS1B monoclonal antibody for 10 minutes. The magnetic bead/antibody complex was washed with PBST once, followed by incubation with […] antigen extract for 20 min. The post-immunoprecipitation sample was saved for comparison. Three 200 mL washes with washing buffer+protease inhibitor were completed. The fourth wash used only 100 mL of wash buffer+protease inhibitor. The magnetic beads were transferred to a new micro-centrifuge tube. 1× Lamelli buffer was added to bead/antibody/antigen complex for subsequent analysis. The sample was boiled at 98° C. for 10 min in 1× Lamelli buffer and the supernatant transferred to a new tube. The immunoprecipitation sample was analyzed by western blot and Coomassie blue staining. The SDS-PAGE samples (pre-IP, IP, and post IP extracts) were resolved with 12% TGX Criterion gels at 30 milliamps for 1 hr. Coomassie stain was added to determine the profile of IP samples. Following SDS-PAGE resolution, bands were transferred to nitrocellulose membrane at 1 Amp for 1 h at 5° C. The membrane was blocked with 5% dry milk/PBST, and incubated with mouse anti-His monoclonal antibody conjugated with HRP for 1 hr at RT at 1:3000 or 1:5000 dilution. The membranes were imaged with TMB solution.\nA unique ˜52 kD band was recovered in SB5 IP. SB5 (IgG2b) has a different isotype than SB1 (IgG2a), and 3A7 (IgG1). The ˜52 kD band from the SB5 immunoprecipitation was isolated, restained with Coomassie blue and submitted for MS/MS to verify protein identity. The MS/MS nanospray ion source was operated at 2.5 kV. The digest was analyzed using the rapid switching capability of the instrument acquiring a full screen mass spectrum to determine peptide molecular weights followed by product ion spectra to determine amino acid sequence in sequential scans. This mode of analysis produces about 20,000 MS/MS spectra of ions ranging in abundance over several orders of magnitude. Not all MS/MS spectra are derived from peptides. The data were analyzed using the Sequest search algorithm against Uniprot Human and SwissProt."}},
  "note": "“Also recorded” adds a separate entry of the source.",
  "data": [
    {"molecule": "SB2: mouse anti-human SAS1B monoclonal antibody, IgG2b; VH SEQ ID NO:14, VL SEQ ID NO:15 (antibody, listed as Mus musculus, V domains shown) VH: EVQLQQSGPELVKPGSSVKISCKASGYTFTDYNMVWVKQSHGKSLEWIGAVNPNNGGTSYNQKFKGKATLTVDKSSSTAYMELRSLTSEDSAVYYCVPNWDWFAYWGQGTLVTVSA VL: DVLMTQTPLSLPVSLGDQASISCRSSQSLVHSNGNTYLEWYLQKPGQSPNLLIYKVSNRFSGVPDRFSGSGSGTDFTLKISRVEAEDLGVYYCFQGSHVPFTFGSGTKLEIK", "values": [
      {"measurement": "Reaction with SAS1B extracellular domain (aa 164-431) polypeptide", "setting": "[1]", "value": "none of the them reacted"},
      {"measurement": "Fluorescence signal on the surface of live uterine tumor cells", "setting": "[2]", "value": "clear fluorescence signal"},
      {"measurement": "Pull down (immunoprecipitation) of SAS1B", "setting": "human SAS1B", "value": "pulled down recombinant SAS1B"}
    ]},
    {"molecule": "SB3: mouse anti-human SAS1B monoclonal antibody, IgG2b; VH SEQ ID NO:14, VL SEQ ID NO:15 (antibody, listed as Mus musculus, V domains shown) VH: EVQLQQSGPELVKPGSSVKISCKASGYTFTDYNMVWVKQSHGKSLEWIGAVNPNNGGTSYNQKFKGKATLTVDKSSSTAYMELRSLTSEDSAVYYCVPNWDWFAYWGQGTLVTVSA VL: DVLMTQTPLSLPVSLGDQASISCRSSQSLVHSNGNTYLEWYLQKPGQSPNLLIYKVSNRFSGVPDRFSGSGSGTDFTLKISRVEAEDLGVYYCFQGSHVPFTFGSGTKLEIK", "values": [
      {"measurement": "Reaction with SAS1B extracellular domain (aa 164-431) polypeptide", "setting": "[1]", "value": "none of the them reacted"},
      {"measurement": "Fluorescence signal on the surface of live uterine tumor cells", "setting": "[2]", "value": "clear fluorescence signal"},
      {"measurement": "Pull down (immunoprecipitation) of SAS1B", "setting": "human SAS1B", "value": "immunoprecipitate “native” SAS1B"}
    ]},
    {"molecule": "SB4: mouse anti-human SAS1B monoclonal antibody, IgG2a; VH SEQ ID NO:16, VL SEQ ID NO:17 (antibody, listed as Mus musculus, V domains shown) VH: EVQLQQSGPELVKPGSSVKISCKPSGYTFTDYNMVWMKQSHGKSLEWIGAINPNNGGTTYNQKFKGKATLTVDKSSSTAYMELRSLTSEDSAVYYCAPNWDWFAYWGQGTLVTVSA VL: DVLMTQTPLSLPVSLGDQASISCRSSQSILHSNGNTYLEWYLQKPGQSPKLLIYKVSNRFSGVPDRFSGSGSGTDFTLKISRVEAEDLGVYYCFQGSHVPFTFGSGTKLEIK", "values": [
      {"measurement": "Reaction with SAS1B extracellular domain (aa 164-431) polypeptide", "setting": "[1]", "value": "none of the them reacted"},
      {"measurement": "Fluorescence signal on the surface of live uterine tumor cells", "setting": "[2]", "value": "clear fluorescence signal"},
      {"measurement": "Depletion of SAS1B in post IP sample compared to starting material", "setting": "human SAS1B", "value": "clear relative reduction of SAS1B"},
      {"measurement": "Pull down (immunoprecipitation) of SAS1B", "setting": "human SAS1B", "value": "pulled down recombinant SAS1B; also recorded: immunoprecipitate “native” SAS1B"}
    ]},
    {"molecule": "SB5: mouse anti-human SAS1B monoclonal antibody, IgG2b; VH SEQ ID NO:16, VL SEQ ID NO:18 (antibody, listed as Mus musculus, V domains shown) VH: EVQLQQSGPELVKPGSSVKISCKPSGYTFTDYNMVWMKQSHGKSLEWIGAINPNNGGTTYNQKFKGKATLTVDKSSSTAYMELRSLTSEDSAVYYCAPNWDWFAYWGQGTLVTVSA VL: DVLMTQIPLSLPVSLGDQASISCRSSQSILHSNGNTYLEWYLQKPGQSPKLLIYKVSNRFSGVPDRFSGSGSGTDFTLKISRVEAEDLGVYYCFQGSHVPFTFGSGTKLEIK", "values": [
      {"measurement": "Reaction with SAS1B extracellular domain (aa 164-431) polypeptide", "setting": "[1]", "value": "none of the them reacted"},
      {"measurement": "Fluorescence signal on the surface of live uterine tumor cells", "setting": "[2]", "value": "clear fluorescence signal"},
      {"measurement": "Depletion of SAS1B in post IP sample compared to starting material", "setting": "human SAS1B", "value": "relative depletion of antigen in post IP samples"},
      {"measurement": "MS/MS analysis of the IP sample (~52 kD band)", "setting": "human SAS1B", "value": "confirmed the specificity of the mAb for Human SAS1B protein"},
      {"measurement": "Pull down (immunoprecipitation) of SAS1B", "setting": "human SAS1B", "value": "pulled down; also recorded: immunoprecipitate “native” SAS1B"}
    ]},
    {"molecule": "SB1: mouse anti-SAS1B monoclonal antibody, IgG2a; VH SEQ ID NO:12, VL SEQ ID NO:13 (antibody, listed as Mus musculus, V domains shown) VH: EVQLQQSGPELVKPGSSVKISCKASGYTFTDYNMDWVKQSHGKSLEWIGAINPNNGGTSYNQKFKGKATLTVDKSSSTAYMELRSLTSEDSAVYYCATNEYWGQGTTLTVSS VL: NIVMTQSPKSMSMSVGERVTLSCKASENVGTYVSWYQQKPEQSPKLLIYGASNRYTGVPDRFTGSGSATDFTLTISSVQAEDLADYHCGQSYSYPWTFGGGTKLEIK", "values": [
      {"measurement": "Reaction with SAS1B extracellular domain (aa 164-431) polypeptide", "setting": "[1]", "value": "none of the them reacted"},
      {"measurement": "Fluorescence signal on the surface of live uterine tumor cells", "setting": "[2]", "value": "clear fluorescence signal"},
      {"measurement": "Depletion of SAS1B in post IP sample compared to starting material", "setting": "human SAS1B", "value": "relative depletion of antigen in post IP samples"},
      {"measurement": "Pull down (immunoprecipitation) of SAS1B", "setting": "human SAS1B", "value": "pulled down"}
    ]}
  ]
}
